Assay results: patent publication US20240287161A1 (NATIONAL UNIVERSITY CORPORATION TOTTORI UNIVERSITY, published 2024)

Legend:
[1] = biological target: T1, HCoV-OC43 trimeric S protein (amino acids 12-1299) with T4 foldon, histidine tag and strep-tag (HCoV-OC43, UniProt P36334 12-1291); test: ELISA on coated S-trimeric antigen, anti-human IgG-HRP [Human IgG3, NT-193]
T1 chain: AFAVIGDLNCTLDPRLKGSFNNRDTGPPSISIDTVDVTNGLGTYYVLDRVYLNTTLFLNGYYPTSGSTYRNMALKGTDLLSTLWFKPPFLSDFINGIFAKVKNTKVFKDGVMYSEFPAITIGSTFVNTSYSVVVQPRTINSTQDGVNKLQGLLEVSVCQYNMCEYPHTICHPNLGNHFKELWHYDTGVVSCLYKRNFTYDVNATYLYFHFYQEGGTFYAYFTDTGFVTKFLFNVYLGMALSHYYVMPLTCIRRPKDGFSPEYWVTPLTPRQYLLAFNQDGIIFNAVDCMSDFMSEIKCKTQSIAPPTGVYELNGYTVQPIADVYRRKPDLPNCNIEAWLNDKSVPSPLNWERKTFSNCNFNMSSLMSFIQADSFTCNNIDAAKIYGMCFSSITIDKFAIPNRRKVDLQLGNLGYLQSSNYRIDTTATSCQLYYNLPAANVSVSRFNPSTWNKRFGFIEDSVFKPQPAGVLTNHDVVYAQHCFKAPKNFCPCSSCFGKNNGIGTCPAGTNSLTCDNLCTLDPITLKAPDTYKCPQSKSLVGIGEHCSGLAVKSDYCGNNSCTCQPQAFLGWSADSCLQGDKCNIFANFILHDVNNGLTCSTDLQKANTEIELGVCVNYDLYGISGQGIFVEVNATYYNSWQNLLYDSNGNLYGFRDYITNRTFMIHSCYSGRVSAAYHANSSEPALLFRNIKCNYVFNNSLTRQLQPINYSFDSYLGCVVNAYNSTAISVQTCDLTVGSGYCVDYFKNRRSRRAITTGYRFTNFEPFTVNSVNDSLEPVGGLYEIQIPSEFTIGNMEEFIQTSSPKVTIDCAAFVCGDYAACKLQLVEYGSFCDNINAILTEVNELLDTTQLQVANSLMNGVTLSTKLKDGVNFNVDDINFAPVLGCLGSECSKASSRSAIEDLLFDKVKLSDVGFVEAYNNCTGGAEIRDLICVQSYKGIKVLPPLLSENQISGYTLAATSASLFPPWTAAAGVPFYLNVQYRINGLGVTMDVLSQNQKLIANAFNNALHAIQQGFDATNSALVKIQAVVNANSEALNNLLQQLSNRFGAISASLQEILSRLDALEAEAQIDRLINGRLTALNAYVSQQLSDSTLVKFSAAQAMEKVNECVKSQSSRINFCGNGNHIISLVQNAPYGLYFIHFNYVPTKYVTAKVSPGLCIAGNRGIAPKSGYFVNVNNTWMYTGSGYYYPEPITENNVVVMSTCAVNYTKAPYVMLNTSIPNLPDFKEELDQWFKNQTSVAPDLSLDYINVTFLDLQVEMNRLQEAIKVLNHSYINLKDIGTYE

[2] = biological target: T2, HCoV-HKU1 trimeric S protein (amino acids 13-1293) with T4 foldon, histidine tag and strep-tag (HCoV-HKU1, UniProt Q5MQD0 13-1297); test: as above
T2 sequence: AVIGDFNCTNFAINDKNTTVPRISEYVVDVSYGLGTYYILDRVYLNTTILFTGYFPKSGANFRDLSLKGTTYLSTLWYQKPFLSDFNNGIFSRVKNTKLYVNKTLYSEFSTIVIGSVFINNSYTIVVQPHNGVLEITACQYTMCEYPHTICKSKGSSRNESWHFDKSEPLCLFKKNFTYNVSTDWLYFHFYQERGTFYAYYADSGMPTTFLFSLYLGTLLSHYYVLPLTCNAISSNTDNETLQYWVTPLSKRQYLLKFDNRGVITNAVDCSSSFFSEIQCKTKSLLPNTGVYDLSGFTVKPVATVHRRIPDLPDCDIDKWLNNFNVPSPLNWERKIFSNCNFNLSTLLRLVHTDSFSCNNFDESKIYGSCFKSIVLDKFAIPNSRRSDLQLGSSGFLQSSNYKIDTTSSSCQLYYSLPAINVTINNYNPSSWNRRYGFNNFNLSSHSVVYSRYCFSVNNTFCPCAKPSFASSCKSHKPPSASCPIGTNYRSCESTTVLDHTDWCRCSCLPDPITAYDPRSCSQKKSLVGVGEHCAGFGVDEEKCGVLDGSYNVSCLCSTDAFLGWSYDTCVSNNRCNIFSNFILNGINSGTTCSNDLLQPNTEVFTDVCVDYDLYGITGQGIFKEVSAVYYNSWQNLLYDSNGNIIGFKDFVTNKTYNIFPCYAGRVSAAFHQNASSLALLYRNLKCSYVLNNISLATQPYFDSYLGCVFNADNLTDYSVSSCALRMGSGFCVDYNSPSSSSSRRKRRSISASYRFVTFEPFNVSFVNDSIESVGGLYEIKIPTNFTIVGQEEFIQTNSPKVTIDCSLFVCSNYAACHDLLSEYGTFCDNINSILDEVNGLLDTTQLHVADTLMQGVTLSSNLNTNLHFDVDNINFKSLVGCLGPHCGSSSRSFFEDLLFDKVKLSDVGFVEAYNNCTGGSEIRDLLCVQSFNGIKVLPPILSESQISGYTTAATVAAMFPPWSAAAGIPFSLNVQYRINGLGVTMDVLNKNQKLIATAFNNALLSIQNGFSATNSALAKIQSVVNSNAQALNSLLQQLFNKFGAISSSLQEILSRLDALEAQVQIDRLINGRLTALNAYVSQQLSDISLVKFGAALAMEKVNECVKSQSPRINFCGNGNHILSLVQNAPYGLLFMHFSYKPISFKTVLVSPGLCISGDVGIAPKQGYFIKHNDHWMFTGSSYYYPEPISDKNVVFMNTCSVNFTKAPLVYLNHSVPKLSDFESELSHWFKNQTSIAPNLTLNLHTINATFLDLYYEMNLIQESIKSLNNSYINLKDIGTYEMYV

B1: NT-193, human IgG3 subclass (antibody, V domains shown)
VH: EVQLQQWGAGLLKPSETLSLTCAVYGGSFSGYYWSWIRQPPGKGLEWIGEINHSGSTNYNPSLKSRVTISVDTSKNQFSLKLSSVTAADTAVYYCARGWDLDYYYGMDVWGQGTTVTVSS
VL: DIRMTQSPSAMSASVGDRVTVTCRASQGIGNYLAWFQLKPGKVPKRLIYAASSLQSGVPARFSGGGSGTEFTLTISSLQPEDFATYYCLQHGFLPWTFGQGTKLEIK
binding result [1]: no binding (tested: 1000 ng/ml) | binding result [2]: no binding (tested: 1000 ng/ml)
